Test results: the supplement of paper PMC9170038

Test system: MS2 coat protein
Experiment: apparent KD of MS2 coat protein; designed switch direction (-1 OFF switch, 1 ON switch): -1; higher = weaker reporter binding
Method in brief: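 For each design, the apparent KD is the median over clusters of curves fitted to normalised cluster fluorescence. Clusters held RNA switches with common flanks, transcribed on Illumina chips by stalled E. coli RNA polymerase. These were titrated with SNAP-549-labelled MS2 coat protein, doubling from 0.7 or 1.5 nM to 3 µM, without input, with 200 uM small-molecule ligand, or with an oligonucleotide input.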

[1] = input ligand: microRNA oligo, concentration not stated
[2] = Eterna round: R95, input ligand: microRNA oligo, concentration not stated
[3] = Eterna round: R95, input ligand: FMN 200 uM
[4] = Eterna round: R95, input ligand: none

| Sequence | apparent KD of MS2 coat protein (input ligand: FMN 200 uM) [nM] | apparent KD of MS2 coat protein [1] [nM] | apparent KD of MS2 coat protein (input ligand: none) [nM] | apparent KD of MS2 coat protein [2] [nM] | apparent KD of MS2 coat protein [3] [nM] | apparent KD of MS2 coat protein [4] [nM] |
| --- | --- | --- | --- | --- | --- | --- |
| CUAAAUCAUGUAGGAUAUGCGUGGCAAAGCUAUGCAGAAGGACAUGAGGAUCACCCAUGUGCUUCCGUCUGAGAACAGACGGUA [Mat - Exclusion NG 1 - Mod of JL - D23] (Eterna round: R96, puzzle: Exclusion NG 1) | 306 | 49.6 | 68.2 |  |  |  |
| CAGUACUGAGGAUAUACAUGAGGAUCACCCAUGUGUUCCAGCUAGGGAACUAGCAAAAGUAGAAGGCAGUACUG [salish99_ex3_r3_075] (puzzle: Exclusion 3) |  |  |  | 23.1 |  |  |
| GCACGGAGUGCAGGAUAUCUGUGCGAUUAGCUCAGAGAAGGGCACAUGAGGAUCACCCAUGUGUAUAAACACAAUAAUCCGUGC [Eli exng1 - 068] (Eterna round: R96, puzzle: Exclusion NG 1) | 18.6 | 9.94 | 14 |  |  |  |
| GUCGUGUUAGGAUAUAACAACUACUAAUAAAUUAGUAGUUGUUAGAAGGAACAUGAGGAUCACCCAUGUAUGAC [-23.4, -22.9 kcal, A 36%] (Eterna round: R97, puzzle: Exclusion 4) | 192 |  | 43.1 |  |  |  |
| ACAUGUCAUCGAGGAUAUUGUACACAUGAGGAUCACCCAUGUAUUCGGUUGCUCUCGCGUGAGUUCGAGAAGGCGAUGUACAUU [Ex NG2 #82] (Eterna round: R96, puzzle: Exclusion NG 2) | 105 | 24.2 | 29.3 |  |  |  |
| CAACGUAGUAAGGAUAUCCGGCAAAAGGCUACAGGAGAAGGUACUACAUGAGGAUCACCCAUGUGGAACUGUAA [EX6 B.7] (Eterna round: R97, puzzle: Exclusion 6) | 16.8 |  | 16.1 |  |  |  |
| GAUCCACAUGAGGAUCACCCAUGUGAGGAUAUGAUACUAUGUACUUCGGUACAUAGUAUCAGAAGGCAUAUUGA [Ex1-3: 46] (puzzle: Exclusion 1) |  |  |  | 36.3 |  |  |
| AAAAGGUCAGGAUAUUCAAGAAAAGAAAAGAAAAGAAAAGAGAAGAAGGGACAUGAGGAUCACCCAUGUAAAAG [Default title] (puzzle: Exclusion 4) |  |  |  | 18.9 | 24.9 | 13.5 |
| AUUCAACAUGAGGAUCACCCAUGUGAGGAUAUGCGAGAAUAGACUUCGGUCAGAUAGAGCAGAAGGCGCAGAUA [EX1 #5] (Eterna round: R97, puzzle: Exclusion 1) | 22 |  | 29.1 |  |  |  |
| CCCGUCGAUGUAGGAUAUGCCCGGGUCUCCCGGGCAGAAGGACAUGAGGAUCACCCAUGUUCAUGAGGGUCGCCCAUGAAUGGG [Double but mutated MS2] (Eterna round: R96, puzzle: Exclusion NG 1) | 88.8 | 17 | 21.2 |  |  |  |
| AAGUACCGUCACGAUAGUGAUGGUACAACAAGUAGUGAAACAUGAGGAUCACCCAUGUCCUCAAUUGCUCGUCUUAU [Sensor 3 - 81] (puzzle: Sensor v3, turn-off variant 2) |  |  |  | 264 | 776 | 1020 |
| GUACCAGAUGUCAGGAUAUGCUUUGAGAGUUGCGAGUAGAAGGGACAUGAGGAUCACCCAUGUACCUACAGGAA [BmEX4 B.30] (Eterna round: R97, puzzle: Brourd's mod of Exclusion 4) | 14.7 |  | 14 |  |  |  |
| GAGAACGUAGGAUAUACAUGAGGAUCACCCAUGUGAGGAAGGAGUAGGAAGCGUGGAAGUAGAAGGACGGAGAG [JR_Exclu3_Sub073] (puzzle: Exclusion 3) |  |  |  | 40.6 | 57.6 | 24.5 |
| UUGUUAUAUGUAGGAUAUGCGUAUUAUUGUUAUGCAGAAGGACAUGAGGAUCACCCAUGUAUAUUAUUGUUAUAUAUUAUAUAU [Title] (Eterna round: R96, puzzle: Exclusion NG 1) |  | 20.3 |  |  |  |  |
| UACAUGAGGAUCACCCAUGUUUUGUCGUGUAUGGUAUUUAUCUAGGAUAUCAGGUUAUUUAUUUAUGAGAAGGAGAAUAUUAAU [JMF's solution 25] (Eterna round: R96, puzzle: Exclusion NG 3) | 33.3 | 37.5 | 34.3 |  |  |  |
| CCGAGGUGGCGGUCCUAUGACAUGAGGAUCACCCAUGUACCUCGCCACAAGCUCUUUGCUCAUCUUAUAGUUCUCGG [Onlaor] (puzzle: Sensor v3, turn-off variant 1) |  |  |  | 124 | 18.6 | 17.9 |
| GUAUAGCGAGGAUAUACAUGAGGAUCACCCAUGUGAUCCUUAGGCUGUACAAGCCAAUGUAGAAGGCGCAAAUU [jl-ex3.4.59 ViennaUCT mod] (Eterna round: R97, puzzle: Exclusion 3) | 75.7 |  | 147 |  |  |  |
